One block for each binder: values may come before it.
Columns and labels:
[1] = molecular target: T1, human Sortilin (SORT1), full-length untagged, expressed on cells (human, UniProt Q99523 78-831); experiment: cell-based or functional assay
T1 sequence: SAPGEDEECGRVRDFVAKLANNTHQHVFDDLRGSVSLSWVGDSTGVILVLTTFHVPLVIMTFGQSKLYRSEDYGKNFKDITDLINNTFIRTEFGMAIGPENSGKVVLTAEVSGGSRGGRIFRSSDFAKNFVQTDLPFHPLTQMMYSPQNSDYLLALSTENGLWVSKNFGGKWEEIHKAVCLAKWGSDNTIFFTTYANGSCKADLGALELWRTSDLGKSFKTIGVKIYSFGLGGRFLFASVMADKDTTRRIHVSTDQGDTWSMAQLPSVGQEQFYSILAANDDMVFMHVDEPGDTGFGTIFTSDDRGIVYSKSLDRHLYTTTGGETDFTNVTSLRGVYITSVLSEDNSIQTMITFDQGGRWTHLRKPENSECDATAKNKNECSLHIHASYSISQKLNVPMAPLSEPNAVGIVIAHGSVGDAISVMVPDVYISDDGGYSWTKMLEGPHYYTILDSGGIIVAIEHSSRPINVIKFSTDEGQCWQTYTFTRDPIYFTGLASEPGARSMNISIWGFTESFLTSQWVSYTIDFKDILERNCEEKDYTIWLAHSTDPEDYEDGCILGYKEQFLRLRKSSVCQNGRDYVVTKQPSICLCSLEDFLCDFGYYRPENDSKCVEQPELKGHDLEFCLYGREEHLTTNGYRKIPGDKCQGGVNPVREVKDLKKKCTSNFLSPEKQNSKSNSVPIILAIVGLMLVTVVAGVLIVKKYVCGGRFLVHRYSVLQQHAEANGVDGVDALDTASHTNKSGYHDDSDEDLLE

[2] = molecular target: T1, human Sortilin (SORT1), full-length …; experiment: cell-based or functional assay; remark: listed apart in the source
[3] = molecular target: T1, human Sortilin (SORT1), full-length …; experiment: FACS on HEK293T cells expressing human SORT1, huIgG1; average of two experiments
Description: (§1) For the binding assay, stable HEK293T cells expressing human SORT1 were harvested by trypsinization, washed in PBS, counted and plated on 96-well u-bottom plates at 1×10⁵ cells/well. The plates were spun at 1,400 rpm for 3 minutes and primary anti-SORT1 or control antibodies were added in FACS buffer (PBS+2 FBS) and incubated on ice for one hour. Cells were subsequently centrifuged as before and washed thrice with FACS buffer. Cells were then incubated with anti-human APC conjugated secondary antibody (BD Biosciences) in FACS buffer for 30 minutes on ice. Cells were again washed three times with FACS buffer and analyzed on a BD FACS Canto or an Intellicyt Flow Cytometer. Binding was measured as median fluorescent intensity (MFI) in the […] channel of the GFP positive cell population.
(§2) All antibodies were tested on the huIgG1 backbone.

[4] = molecular target: T1, human Sortilin (SORT1), full-length …; experiment: cell-based or functional assay; remark: listed apart in the source
[5] = molecular target: T1, human Sortilin (SORT1), full-length …; experiment: FACS on HEK293T cells expressing human SORT1, huIgG1
Description: as §1, §2

[6] = molecular target: T1, human Sortilin (SORT1), full-length …; experiment: cell-based or functional assay; remark: listed apart in the source
[7] = molecular target: T1, human Sortilin (SORT1), full-length …; experiment: FACS on HEK293T cells expressing human SORT1
Description: as §1

[8] = molecular target: T2, histidine-tagged human SORT1 (R&D Systems) (human, UniProt Q99523 78-755); experiment: BLI, complete kinetic analysis with multiple concentrations of SORT1
T2 construct: Bought recombinant protein; also called His-tagged human SORT1; not shown: histidine tag
T2 sequence: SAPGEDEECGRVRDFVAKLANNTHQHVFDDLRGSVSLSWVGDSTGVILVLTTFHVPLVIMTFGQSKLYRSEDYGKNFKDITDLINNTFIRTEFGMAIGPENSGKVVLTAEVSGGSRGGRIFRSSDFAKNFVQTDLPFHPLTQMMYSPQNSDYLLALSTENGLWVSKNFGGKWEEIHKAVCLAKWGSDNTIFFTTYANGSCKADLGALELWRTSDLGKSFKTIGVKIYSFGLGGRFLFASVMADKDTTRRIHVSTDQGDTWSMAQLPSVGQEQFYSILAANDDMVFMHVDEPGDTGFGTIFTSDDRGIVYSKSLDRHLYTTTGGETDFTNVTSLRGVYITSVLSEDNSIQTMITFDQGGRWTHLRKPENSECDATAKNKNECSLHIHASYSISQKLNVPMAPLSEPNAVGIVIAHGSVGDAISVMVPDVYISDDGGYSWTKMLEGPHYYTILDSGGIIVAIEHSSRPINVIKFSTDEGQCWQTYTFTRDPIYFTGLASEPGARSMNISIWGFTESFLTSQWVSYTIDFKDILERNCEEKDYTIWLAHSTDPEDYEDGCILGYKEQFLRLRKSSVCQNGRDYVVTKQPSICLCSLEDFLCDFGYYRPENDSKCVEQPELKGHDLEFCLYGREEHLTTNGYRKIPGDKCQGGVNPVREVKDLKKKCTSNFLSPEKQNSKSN

[9] = molecular target: T2, histidine-tagged human SORT1 (R&D …); experiment: BLI (Octet RED96), antibody captured on anti-human IgG Fc sensor, 20 nM His-tagged human SORT1, 1:1 fit
Description: The G1m3 or G1m(f) allotype with L234A/L235A/P331S (“LALAPS” motif) mutations was used as a background (Jefferis R and Lefranc M-P, Mabs, 2009 July-August; 1(4): 332-338). […] Bio-layer interferometry (BLI) data was collected at a rate of 5 Hz at 25° C. on a Pall ForteBio Octet RED96 instrument. Data analysis was performed using ForteBio Data Analysis Software, version 9.0. Standard kinetic buffer (PBS, 0.1 BSA, 0.02 Tween-20, pH 7.2) was used for the assay and for preparing reagents. For all assays, sensor tips were equilibrated in buffer prior to analysis.
Twenty nM histidine-tagged human SORT1 (R&D Systems, Minneapolis, Minn.) was then bound to the captured anti-SORT1 surface (200 s association time, 1200 s dissociation time). […] Full, local fitting using a 1:1 interaction model was applied to extract association and dissociation rate constants (kₐ and kd, respectively) for each N33 mutant. Affinity constants (KD) were calculated from the ratio […]. Different amino acid substitutions were made at N33 and tested for binding to SORT1 in an off-rate screen (under non-stress conditions) as shown in Table 9.

B1: S-60-3 (antibody, IgG1, V domains shown)
VH: QVQLQESGPGLVKPSETLSLTCAVSGYSISSGYYWGWIRQPPGKGLEWIGTIYHSGSTYYNPSLKSRVTISVDTSKNQFSLKLSSVTAADTAVYYCARQGSIKQGYYGMDVWGQGTTVTVSS
VL: DIVMTQSPLSLPVTPGEPASISCRSSQSLLRSNGYNYLDWYLQKPGQPPQLLIYLGSNRVSGVPDRFSGSGSGTDFTLKISRVEAEDVGVYYCMQQQETPLTFGGGTKVEIK
notes: Tested on the huIgG1 (WT) backbone
DR EC50 (M): down-regulation of cell surface SORT1, U251 cells, FACS [1]: 2.69e-10 M
DR at 0.6 nM antibody (IgG): percent SORT1 downregulation, U251 cells [1]: 43%
DR at 1.25 nM antibody (IgG): percent SORT1 downregulation, U251 cells [2]: 61.5%
Kd [3]: 0.856 nM

B2: S-60-13 (antibody, IgG1, V domains shown)
VH: QVQLQESGPGLVKPSETLSLTCAVSGYSISSGYYWGWIRQPPGKGLEWIGTIYHSGSTYYNPSLESRVTISVDTSKNQFSLKLSSVTAADTAVYYCARQGSIQQGYYGMDVWGQGTTVTVSS
VL: not shown
notes: as for B1
DR at 0.63 nM antibody (IgG): percent SORT1 downregulation, U251 cells [4]: 82.3%
Kd [5]: 0.75 nM

B5: S-60-15.1 [N33T] as huIgG1 (antibody, V domains shown)
VH: QVQLQESGPGLVKPSETLSLTCAVSGYSISSGYYWGWIRQPPGKGLEWIGTIYHSGSTYYNPSLKSRVTISVDTSKNQFSLKLSSVTAADTAVYYCARQGSIKQGYYGMDVWGQGTTVTVSS
VL: DIVMTQSPLSLPVTPGEPASISCRSSQSLLRSTGYNYLDWYLQKPGQSPQLLIYLGSNRASGVPDRFSGSGSGTDFTLKISRAEAEDVGVYYCMQQQEAPLTFGGGTKVEIK
notes: huIgG1 without the LALAPS mutations
% DR at 150 nM antibody (IgG), U251 cells [6]: 69.3%
EC50 (pM): downregulation (DR) of cell surface SORT1, U251 cells, FACS [6]: 72.6 pM
Kd [7]: 0.365 nM
Kd [8]: 0.298 nM

B7: S-60-15.5 [N33D] (antibody, V domains shown)
VH: QVQLQESGPGLVKPSETLSLTCAVSGYSISSGYYWGWIRQPPGKGLEWIGTIYHSGSTYYNPSLKSRVTISVDTSKNQFSLKLSSVTAADTAVYYCARQGSIKQGYYGMDVWGQGTTVTVSS
VL: DIVMTQSPLSLPVTPGEPASISCRSSQSLLRSDGYNYLDWYLQKPGQSPQLLIYLGSNRASGVPDRFSGSGSGTDFTLKISRAEAEDVGVYYCMQQQEAPLTFGGGTKVEIKR
notes: also called completely deamidated version of S-60-15
% DR at 150 nM antibody (IgG), U251 cells [6]: 3.4%
Kd [9]: 1 nM

Results, then the binder that gave them:

DR at 0.63 nM antibody (IgG): percent SORT1 downregulation, U251 cells [4]: 80.5%
Kd [5]: 1.05 nM
B3: S-60-14 (antibody, IgG1, V domains shown)
VH: QVQLQESGPGLVKPSETLSLTCAVSGYSISSGYYWGWIRQPPGKGLEWIGTIYHSGSTYYNPSLESRVTISVDTSKNQFSLKLSSVTAADTAVYYCARQGSIQQGYYGMDVWGQGTTVTVSS
VL: not shown
notes: as for B1

DR at 1.25 nM antibody (IgG): percent SORT1 downregulation, U251 cells [2]: 65.2%
DR at 0.63 nM antibody (IgG): percent SORT1 downregulation, U251 cells [4]: 81.5%
Kd [3]: 0.755 nM
B4: S-60-24 (antibody, IgG1, V domains shown)
VH: QVQLQESGPGLVKPSETLSLTCAVSGYSISSGYYWGWIRQPPGKGLEWIGTIYHSGSTYYNPSLKSRVTISVDTSKNQFSLKLSSVTAADTAVYYCARQGSIKQGYYGMDVWGQGTTVTVSS
VL: DIVMTQSPLSLPVTPGESASISCRSSQGLLRSNGYNYLDWYLQKPGQSPQLLIYLGSNRASGVPDRFSGSGSGTDFTLKISRVEAEDVGVYYCMQQQEAPLTFGGGTKVEIK
notes: as for B1

% DR at 150 nM antibody (IgG), U251 cells [6]: 70.3%
EC50 (pM): downregulation (DR) of cell surface SORT1, U251 cells, FACS [6]: 104 pM
Kd [8]: 0.26 nM
B6: S-60-15.1 [N33T] LALAPS (antibody, human IgG1, kappa, L234A L235A, V domains shown)
VH: QVQLQESGPGLVKPSETLSLTCAVSGYSISSGYYWGWIRQPPGKGLEWIGTIYHSGSTYYNPSLKSRVTISVDTSKNQFSLKLSSVTAADTAVYYCARQGSIKQGYYGMDVWGQGTTVTVSS
VL: DIVMTQSPLSLPVTPGEPASISCRSSQSLLRSTGYNYLDWYLQKPGQSPQLLIYLGSNRASGVPDRFSGSGSGTDFTLKISRAEAEDVGVYYCMQQQEAPLTFGGGTKVEIKR
notes: huIgG1 LALAPS

Source: US20200024348A1 (Alector, published 2020)
